Measured values as given in publication PMC5105168, “AKAP95 regulates splicing through scaffolding RNAs and RNA processing factors” (Nature Communications, 2016).

B1: purified Flag-tagged AKAP95 (natural protein)
chain: not shown
notes: AKAP95 (AKAP8) cDNA in pFastBac1; also called F-AKAP95; FLAG-AKAP95; source: sf9 cells (baculovirus), purified (anti-FLAG M2 agarose, FLAG peptide elution)

Assays:
[1] = target: B1; test: pull-down; GST fusions bound to glutathione resin, purified F-AKAP95 proteins in solution, BC200, 0.1% NP40, immunoblot; settings: both partners purified
[2] = target: T1, purified AKAP95-MBP fusion protein (human, UniProt O43823 1-692); test: pull-down; purified MBP or AKAP95-MBP bound to amylose resin, purified F-AKAP95 in solution, BC200, 0.05% NP40, immunoblot; settings: both partners purified
T1 construct: AKAP95 (AKAP8); source: sf9 cells (baculovirus), purified on amylose resin, kept on the resin
T1 sequence (O43823 whole entry, the tested form may be a part): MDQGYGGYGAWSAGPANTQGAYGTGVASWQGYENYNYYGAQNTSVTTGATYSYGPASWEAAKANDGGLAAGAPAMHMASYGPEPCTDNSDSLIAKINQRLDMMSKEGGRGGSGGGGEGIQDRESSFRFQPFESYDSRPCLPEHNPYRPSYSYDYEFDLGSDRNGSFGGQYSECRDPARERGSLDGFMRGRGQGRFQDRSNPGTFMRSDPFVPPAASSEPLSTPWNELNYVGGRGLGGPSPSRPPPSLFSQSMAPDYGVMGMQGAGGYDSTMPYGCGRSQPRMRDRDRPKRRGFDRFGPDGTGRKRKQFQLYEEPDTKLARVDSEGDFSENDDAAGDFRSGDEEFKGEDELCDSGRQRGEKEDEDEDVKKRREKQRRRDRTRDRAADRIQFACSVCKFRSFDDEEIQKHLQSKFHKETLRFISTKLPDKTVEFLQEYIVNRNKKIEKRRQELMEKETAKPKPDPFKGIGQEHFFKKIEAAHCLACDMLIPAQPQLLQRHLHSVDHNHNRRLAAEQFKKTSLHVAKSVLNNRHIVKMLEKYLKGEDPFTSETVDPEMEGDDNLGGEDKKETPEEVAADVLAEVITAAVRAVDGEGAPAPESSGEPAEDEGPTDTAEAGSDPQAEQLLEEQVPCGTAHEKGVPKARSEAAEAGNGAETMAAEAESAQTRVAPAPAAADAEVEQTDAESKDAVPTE

Binder | binding result [1] | binding result [2]
GST-hnRNP H1 (natural protein, human (cDNA from 293 cells), UniProt P31943 1-449, looked up, hnRNP H1, cDNA amplified from 293 cell cDNAs, cloned into pGEX-4T-1; source: E. coli BL21 (DE3), purified on glutathione sepharose 4B without elution) MMLGTEGGEGFVVKVRGLPWSCSADEVQRFFSDCKIQNGAQGIRFIYTREGRPSGEAFVELESEDEVKLALKKDRETMGHRYVEVFKSNNVEMDWVLKHTGPNSPDTANDGFVRLRGLPFGCSKEEIVQFFSGLEIVPNGITLPVDFQGRSTGEAFVQFASQEIAEKALKKHKERIGHRYIEIFKSSRAEVRTHYDPPRKLMAMQRPGPYDRPGAGRGYNSIGRGAGFERMRRGAYGGGYGGYDDYNGYNDGYGFGSDRFGRDLNYCFSGMSDHRYGDGGSTFQSTTGHCVHMRGLPYRATENDIYNFFSPLNPVRVHIEIGPDGRVTGEADVEFATHEDAVAAMSKDKANMQHRYVELFLNSTAGASGGAYEHRYVELFLNSTAGASGGAYGSQMMGGMGLSNQSSYGGPASQQLSGGYGGGYGGQSSMSGYDQVLQENSSDFQSNIA | binds | –
B1 | – | binds
